Experimental data from IntAct's records for PubMed 19732766.

B1: U3 small nucleolar RNA-associated protein 4 homolog (Homo sapiens), Q969X6 (parent)
chain: MGEFKVHRVRFFNYVPSGIRCVAYNNQSNRLAVSRTDGTVEIYNLSANYFQEKFFPGHESRATEALCWAEGQRLFSAGLNGEIMEYDLQALNIKYAMDAFGGPIWSMAASPSGSQLLVGCEDGSVKLFQITPDKIQFERNFDRQKSRILSLSWHPSGTHIAAGSIDYISVFDVKSGSAVHKMIVDRQYMGVSKRKCIVWGVAFLSDGTIISVDSAGKVQFWDSATGTLVKSHLIANADVQSIAVADQEDSFVVGTAEGTVFHFQLVPVTSNSSEKQWVRTKPFQHHTHDVRTVAHSPTALISGGTDTHLVFRPLMEKVEVKNYDAALRKITFPHRCLISCSKKRQLLLFQFAHHLELWRLGSTVATGKNGDTLPLSKNADHLLHLKTKGPENIICSCISPCGSWIAYSTVSRFFLYRLNYEHDNISLKRVSKMPAFLRSALQILFSEDSTKLFVASNQGALHIVQLSGGSFKHLHAFQPQSGTVEAMCLLAVSPDGNWLAASGTSAGVHVYNVKQLKLHCTVPAYNFPVTAMAIAPNTNNLVIAHSDQQVFEYSIPDKQYTDWSRTVQKQGFHHLWLQRDTPITHISFHPKRPMHILLHDAYMFCIIDKSLPLPNDKTLLYNPFPPTNESDVIRRRTAHAFKISKIYKPLLFMDLLDERTLVAVERPLDDIIAQLPPPIKKKKFGT

Variants of: B1
Details: with zep1_human HIVEP1, P15822

For R565W, which “effect of a mutation on the interaction” value is on record?
The value was “decreasing interaction”.
